According to PMC6152903 (Cell reports, 2018):

B1: endogenous ZMYND8 (natural protein)
chain: MDISTRSKDPGSAERTAQKRKFPSPPHSSNGHSPQDTSTSPIKKKKKPGLLNSNNKEQSELRHGPFYYMKQPLTTDPVDVVPQDGRNDFYCWVCHREGQVLCCELCPRVYHAKCLRLTSEPEGDWFCPECEKITVAECIETQSKAMTMLTIEQLSYLLKFAIQKMKQPGTDAFQKPVPLEQHPDYAEYIFHPMDLCTLEKNAKKKMYGCTEAFLADAKWILHNCIIYNGGNHKLTQIAKVVIKICEHEMNEIEVCPECYLAACQKRDNWFCEPCSNPHPLVWAKLKGFPFWPAKALRDKDGQVDARFFGQHDRAWVPINNCYLMSKEIPFSVKKTKSIFNSAMQEMEVYVENIRRKFGVFNYSPFRTPYTPNSQYQMLLDPTNPSAGTAKIDKQEKVKLNFDMTASPKILMSKPVLSGGTGRRISLSDMPRSPMSTNSSVHTGSDVEQDAEKKATSSHFSASEESMDFLDKSTASPASTKTGQAGSLSGSPKPFSPQLSAPITTKTDKTSTTGSILNLNLDRSKAEMDLKELSESVQQQSTPVPLISPKRQIRSRFQLNLDKTIESCKAQLGINEISEDVYTAVEHSDSEDSEKSDSSDSEYISDDEQKSKNEPEDTEDKEGCQMDKEPSAVKKKPKPTNPVEIKEELKSTSPASEKADPGAVKDKASPEPEKDFSEKAKPSPHPIKDKLKGKDETDSPTVHLGLDSDSESELVIDLGEDHSGREGRKNKKEPKEPSPKQDVVGKTPPSTTVGSHSPPETPVLTRSSAQTSAAGATATTSTSSTVTVTAPAPAATGSPVKKQRPLLPKETAPAVQRVVWNSSSKFQTSSQKWHMQKMQRQQQQQQQQNQQQQPQSSQGTRYQTRQAVKAVQQKEITQSPSTSTITLVTSTQSSPLVTSSGSMSTLVSSVNADLPIATASADVAADIAKYTSKMMDAIKGTMTEIYNDLSKNTTGSTIAEIRRLRIEIEKLQWLHQQELSEMKHNLELTMAEMRQSLEQERDRLIAEVKKQLELEKQQAVDETKKKQWCANCKKEAIFYCCWNTSYCDYPCQQAHWPEHMKSCTQSATAPQQEADAEVNTETLNKSSQGSSSSTQSAPSETASASKEKETSAEKSKESGSTLDLSGSRETPSSILLGSNQGSDHSRSNKSSWSSSDEKRGSTRSDHNTSTSTKSLLPKESRLDTFWD
B2: FLAG-ZMYND8 (Sf9) (natural protein)
chain: MHPQSLAEEEIKTEQEVVEGMDISTRSKDPGSAERTAQKRKFPSPPHSSNGHSPQDTSTSPIKKKKKPGLLNSNNKEQSELRHGPFYYMKQPLTTDPVDVVPQDGRNDFYCWVCHREGQVLCCELCPRVYHAKCLRLTSEPEGDWFCPECEKITVAECIETQSKAMTMLTIEQLSYLLKFAIQKMKQPGTDAFQKPVPLEQHPDYAEYIFHPMDLCTLEKNAKKKMYGCTEAFLADAKWILHNCIIYNGGNHKLTQIAKVVIKICEHEMNEIEVCPECYLAACQKRDNWFCEPCSNPHPLVWAKLKGFPFWPAKALRDKDGQVDARFFGQHDRAWVPINNCYLMSKEIPFSVKKTKSIFNSAMQEMEVYVENIRRKFGVFNYSPFRTPYTPNSQYQMLLDPTNPSAGTAKIDKQEKVKLNFDMTASPKILMSKPVLSGGTGRRISLSDMPRSPMSTNSSVHTGSDVEQDAEKKATSSHFSASEESMDFLDKSTASPASTKTGQAGSLSGSPKPFSPQLSAPITTKTDKTSTTGSILNLNLDRSKAEMDLKELSESVQQQSTPVPLISPKRQIRSRFQLNLDKTIESCKAQLGINEISEDVYTAVEHSDSEDSEKSDSSDSEYISDDEQKSKNEPEDTEDKEGCQMDKEPSAVKKKPKPTNPVEIKEELKSTSPASEKADPGAVKDKASPEPEKDFSEKAKPSPHPIKDKLKGKDETDSPTVHLGLDSDSESELVIDLGEDHSGREGRKNKKEPKEPSPKQDVVGKTPPSTTVGSHSPPETPVLTRSSAQTSAAGATATTSTSSTVTVTAPAPAATGSPVKKQRPLLPKETAPAVQRVVWNSSSKFQTSSQKWHMQKMQRQQQQQQQQNQQQQPQSSQGTRYQTRQAVKAVQQKEITQSPSTSTITLVTSTQSSPLVTSSGSMSTLVSSVNADLPIATASADVAADIAKYTSKMMDAIKGTMTEIYNDLSKNTTGSTIAEIRRLRIEIEKLQWLHQQELSEMKHNLELTMAEMRQSLEQERDRLIAEVKKQLELEKQQAVDETKKKQWCANCKKEAIFYCCWNTSYCDYPCQQAHWPEHMKSCTQSATAPQQEADAEVNTETLNKSSQGSSSSTQSAPSETASASKEKETSAEKSKESGSTLDLSGSRETPSSILLGSNQGSDHSRSNKSSWSSSDEKRGSTRSDHNTSTSTKSLLPKESRLDTFWD

Columns and labels:
[1] = target: the molecule itself; test: SDS-PAGE without reducing reagent
co-IP = target: the molecule itself; test: co-IP

| Protein | stoichiometry N [1] | stoichiometry N (co-IP) |
| --- | --- | --- |
| B1 | 2 | – |
| B2 | – | 2 |
